The values below come from US20140294837A1 (SAMSUNG ELECTRONICS, published 2014).

In assay [1] the target is c-Met on cells (MKN45, Caki-1, NCI-H441, HUVEC) (human, UniProt P08581 25-1390). The assay is described as follows: cell-based or functional assay.
The target of assay [2] is T1, c-Met (R&D Systems, Cat. No. 358-MT/CF) (UniProt P08581 25-932).
T1 construct: Bought protein used as analyte in SPR
The assay is described as follows: SPR, Biacore T100; antibody captured by human Fab binder on CM5 chip, c-Met injected. As for the experimental part: The binding kinetics of the double-targeted fusion proteins manufactured in the above were analyzed using Biacore T100 instrument (GE Healthcare). A human Fab binding agent (GE Healthcare) was immobilized on the surface of a CM5 chip (GE Healthcare, Cat. No. BR-1005-30) according to the manufacturer's manual. […] Then, 10 mM Glycine-HCl (pH 1.5) solution was added thereto, whereby the surface was regenerated. In order to measure the binding kinetics, the data obtained from the above experiment was fitted using BIAevaluation software (GE Healthcare, Biacore T100 evaluation software).
A general note: Surface plasmon resonance follows binding to a sensor surface in real time, without labels.

The target of assay [3] is hVEGF (GE Healthcare, 28-9583-25) (human, UniProt P15692-4 27-191). The assay is described as follows: SPR, Biacore T100; hVEGF immobilized on CM5 chip, MV10AY at 6 concentrations. As for the experimental part: The binding kinetics of the double-specific antibodies having VEGF as a target were measured by an SPR method using Biacore T100 instrument (GE Healthcare). hVEGF (GE Healthcare, 28-9583-25) was immobilized on the surface of a CM5 chip according to the manufacturer's manual. […] The obtained surface was regenerated by injecting 1M NaCl+30 mM NaOH at a fluid rate of 30 μl/min for 60 sec. In order to determine binding kinetics, the data obtained from the above experiment was fitted using BIAevaluation software (GE Healthcare) (K_{D=}=0.45 nM).
Chain of hVEGF (GE Healthcare, 28-9583-25) (P15692 other isoform, or with tags, fused parts or gaps limits assumed): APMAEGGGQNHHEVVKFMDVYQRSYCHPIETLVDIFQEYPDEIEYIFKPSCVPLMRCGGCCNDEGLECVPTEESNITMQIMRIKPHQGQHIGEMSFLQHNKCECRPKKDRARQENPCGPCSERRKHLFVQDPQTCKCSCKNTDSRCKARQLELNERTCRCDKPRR

Assay [4] concerns the target T2, human c-Met/Fc fusion protein (R&D Systems) (human, UniProt P08581 25-932).
T2 construct: Immunogen and ELISA antigen; also called human c-Met/Fc protein; not shown: Fc part of the bought fusion protein; not described
The assay is described as follows: ELISA, hybridoma culture on plate-coated human c-Met/Fc fusion protein. (In an ELISA, binding on a coated surface is turned into a signal by an enzyme label.)

Chain of c-Met on cells (MKN45, Caki-1, NCI-H441, HUVEC) (P08581 25-1390): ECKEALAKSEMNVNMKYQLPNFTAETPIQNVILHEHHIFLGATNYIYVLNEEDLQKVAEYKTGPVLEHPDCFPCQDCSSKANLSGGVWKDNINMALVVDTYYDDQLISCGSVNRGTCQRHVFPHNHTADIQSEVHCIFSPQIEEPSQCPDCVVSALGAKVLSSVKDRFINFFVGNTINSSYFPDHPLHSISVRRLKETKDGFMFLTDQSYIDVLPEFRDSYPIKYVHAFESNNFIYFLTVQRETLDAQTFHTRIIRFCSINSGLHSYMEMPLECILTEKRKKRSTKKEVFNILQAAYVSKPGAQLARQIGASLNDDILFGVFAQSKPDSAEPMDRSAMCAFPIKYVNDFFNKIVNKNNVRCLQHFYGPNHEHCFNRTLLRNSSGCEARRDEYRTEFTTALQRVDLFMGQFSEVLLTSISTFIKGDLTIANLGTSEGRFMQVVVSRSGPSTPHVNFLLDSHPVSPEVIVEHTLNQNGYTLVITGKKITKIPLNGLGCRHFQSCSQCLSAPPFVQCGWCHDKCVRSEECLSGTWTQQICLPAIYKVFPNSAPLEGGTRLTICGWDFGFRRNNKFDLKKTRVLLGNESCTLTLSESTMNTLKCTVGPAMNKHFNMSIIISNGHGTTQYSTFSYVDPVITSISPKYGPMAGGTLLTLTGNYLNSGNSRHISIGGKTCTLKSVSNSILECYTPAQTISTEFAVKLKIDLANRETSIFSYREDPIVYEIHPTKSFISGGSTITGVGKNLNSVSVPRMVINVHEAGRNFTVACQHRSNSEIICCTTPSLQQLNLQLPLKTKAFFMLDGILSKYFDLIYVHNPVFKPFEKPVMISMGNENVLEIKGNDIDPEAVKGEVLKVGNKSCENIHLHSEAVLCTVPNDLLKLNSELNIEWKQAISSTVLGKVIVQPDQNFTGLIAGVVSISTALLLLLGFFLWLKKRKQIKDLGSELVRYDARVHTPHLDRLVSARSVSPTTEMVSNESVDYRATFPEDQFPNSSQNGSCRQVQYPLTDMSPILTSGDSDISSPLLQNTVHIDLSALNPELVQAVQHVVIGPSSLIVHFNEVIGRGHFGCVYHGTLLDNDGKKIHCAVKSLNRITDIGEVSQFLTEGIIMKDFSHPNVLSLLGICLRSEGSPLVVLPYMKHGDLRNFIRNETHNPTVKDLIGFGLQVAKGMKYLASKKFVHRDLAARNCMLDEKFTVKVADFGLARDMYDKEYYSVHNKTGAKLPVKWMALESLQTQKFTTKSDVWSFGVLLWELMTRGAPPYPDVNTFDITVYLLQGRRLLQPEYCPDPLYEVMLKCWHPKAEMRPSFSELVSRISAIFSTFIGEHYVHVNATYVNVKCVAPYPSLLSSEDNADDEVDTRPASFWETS
T1 sequence (P08581 25-932 limits assumed): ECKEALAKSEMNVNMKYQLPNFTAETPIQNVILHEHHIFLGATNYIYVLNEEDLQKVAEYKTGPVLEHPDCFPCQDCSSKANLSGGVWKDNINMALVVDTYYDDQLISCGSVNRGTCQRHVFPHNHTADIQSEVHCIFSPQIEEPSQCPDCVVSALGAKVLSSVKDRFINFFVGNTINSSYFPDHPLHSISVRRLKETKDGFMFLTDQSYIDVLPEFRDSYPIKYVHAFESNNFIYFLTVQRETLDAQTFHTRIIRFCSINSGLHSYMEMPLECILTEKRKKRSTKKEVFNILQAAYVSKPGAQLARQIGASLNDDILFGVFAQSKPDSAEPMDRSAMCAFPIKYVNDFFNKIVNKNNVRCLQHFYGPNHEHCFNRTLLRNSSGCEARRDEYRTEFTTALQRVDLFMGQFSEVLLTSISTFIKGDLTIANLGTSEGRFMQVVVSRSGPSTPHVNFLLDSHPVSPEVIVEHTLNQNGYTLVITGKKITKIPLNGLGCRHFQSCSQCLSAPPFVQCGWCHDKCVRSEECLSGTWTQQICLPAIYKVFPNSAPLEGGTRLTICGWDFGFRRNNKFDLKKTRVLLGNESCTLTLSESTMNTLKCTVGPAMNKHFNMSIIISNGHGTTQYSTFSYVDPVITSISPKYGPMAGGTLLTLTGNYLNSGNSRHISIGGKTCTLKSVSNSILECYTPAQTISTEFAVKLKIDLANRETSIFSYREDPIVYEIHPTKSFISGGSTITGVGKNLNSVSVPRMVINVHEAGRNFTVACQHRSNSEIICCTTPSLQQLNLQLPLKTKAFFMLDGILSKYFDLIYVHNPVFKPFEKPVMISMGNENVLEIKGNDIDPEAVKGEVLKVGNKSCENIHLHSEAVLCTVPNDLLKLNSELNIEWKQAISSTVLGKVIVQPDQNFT
T2 sequence (P08581 25-932 limits assumed): as above

B1: huAbF46-H4-A1 (L3-1 origin) (antibody, V domains shown)
VH: EVQLVESGGGLVQPGGSLRLSCAASGFTFTDYYMSWVRQAPGKGLEWLGFIRNKANGYTTEYSASVKGRFTISRDNSKNTLYLQMNSLRAEDTAVYYCARDNWFAYWGQGTLVTVSS
VL: DIQMTQSPSSLSASVGDRVTITCKSSQSLLASGNQNNHLAWYQQKPGKAPKMLIIWASTRVSGVPSRFSGSGSGTDFTLTISSLQPEDFATYYCQQSYSRPYTFGQGTKVEIKR
With B1, in assay [1], the “AKT phosphorylation inhibitory ability (phospho-AKT Ser473 ELISA, Caki-1 cells, compared to 5D5 control group)” value turned out to be 69% and the “c-Met degradation ability (total c-Met ELISA, MKN45 cells, 5 ug/ml antibody, 24 h)” value worked out at 68%.

B2: L3-1Y (antibody, V domains shown)
VH: EVQLVESGGGLVQPGGSLRLSCAASGFTFTDYYMSWVRQAPGKGLEWLGFIRNKANGYTTEYSASVKGRFTISRDNSKNTLYLQMNSLRAEDTAVYYCARDNWFAYWGQGTLVTVSS
VL: DIQMTQSPSSLSASVGDRVTITCKSSQSLLASGNQNNYLAWYQQKPGKAPKMLIIWASTRVSGVPSRFSGSGSGTDFTLTISSLQPEDFATYYCQQSYSRPYTFGQGTKVEIKR
notes: also called c-Met single-targeted antibody L3-1Y
In general, Kd refers to a measure of binding affinity in units of concentration. Broadly, the koff is the rate constant with which the complex falls apart. A word on the kon: it is the rate constant with which the complex forms. A lower kon goes with slow association. As to B2, in assay [1], the “AKT phosphorylation inhibitory ability (phospho-AKT Ser473 ELISA, Caki-1 cells, compared to 5D5 control group)” value came out at 63% and the “c-Met degradation ability (total c-Met ELISA, MKN45 cells, 5 ug/ml antibody, 24 h)” value turned out to be 66%. In assay [2], this molecule showed a Kd below 0.01 nM, a koff below 1.2e-05 s⁻¹ and a kon of 770000 M⁻¹ s⁻¹.

B3: Ab2 (antibody, V domains shown)
VH: QVQLVQSGAEVKKPGASVKVSCKASGYIFTAYTMHWVRQAPGQGLDWMGGIKPNNGLANYAQKFQGRVTMTVDKSISTAYMELSRLRSDDTAVYYCARSEITTEFDYWGQGTLVTVSS
VL: DIVLTQSPDSLAVSLGERATINCRSSESVDSYANSFMHWYQQKPGQPPKLLIYRASTRESGVPDRFSGSGSRTDFTLTISSLQAEDVAVYYCQQSKEDPLTFGGGTKVEIKR
Consider B3, for which, in assay [1], the “c-Met degradation ability (total c-Met ELISA, method of Example 2.2)” value came to 70.4%.

B4: MV10A (bispecific antibody)
heavy: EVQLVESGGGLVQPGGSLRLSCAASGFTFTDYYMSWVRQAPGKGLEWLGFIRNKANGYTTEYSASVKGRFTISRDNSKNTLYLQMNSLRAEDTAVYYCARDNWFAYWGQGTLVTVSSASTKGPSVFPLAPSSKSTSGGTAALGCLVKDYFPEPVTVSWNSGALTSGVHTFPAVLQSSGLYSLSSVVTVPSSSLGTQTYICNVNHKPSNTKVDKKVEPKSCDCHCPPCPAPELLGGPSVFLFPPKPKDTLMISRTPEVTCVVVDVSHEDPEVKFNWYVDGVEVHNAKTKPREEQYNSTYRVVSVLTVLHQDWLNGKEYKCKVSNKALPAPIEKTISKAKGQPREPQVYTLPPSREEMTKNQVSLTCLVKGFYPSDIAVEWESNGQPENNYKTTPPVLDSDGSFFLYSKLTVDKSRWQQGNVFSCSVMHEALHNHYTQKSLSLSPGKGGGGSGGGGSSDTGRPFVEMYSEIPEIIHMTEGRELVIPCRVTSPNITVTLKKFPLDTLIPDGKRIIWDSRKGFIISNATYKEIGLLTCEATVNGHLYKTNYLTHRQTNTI
light: DIQMTQSPSSLSASVGDRVTITCKSSQSLLASGNQNNHLAWYQQKPGKAPKMLIIWASTRVSGVPSRFSGSGSGTDFTLTISSLQPEDFATYYCQQSYSRPYTFGQGTKVEIKRTVAAPSVFIFPPSDEQLKSGTASVVCLLNNFYPREAKVQWKVDNALQSGNSQESVTEQDSKDSTYSLSSTLTLSKADYEKHKVYACEVTHQGLSSPVTKSFNRGEC
Regarding B4, in assay [1], the “AKT phosphorylation inhibitory ability (phospho-AKT Ser473 ELISA, Caki-1 cells, compared to 5D5 control group)” value was found to be 79% and the “c-Met degradation ability (total c-Met ELISA, MKN45 cells, 5 ug/ml antibody, 24 h)” value was 76%.

B5: MV10AY (bispecific antibody)
heavy: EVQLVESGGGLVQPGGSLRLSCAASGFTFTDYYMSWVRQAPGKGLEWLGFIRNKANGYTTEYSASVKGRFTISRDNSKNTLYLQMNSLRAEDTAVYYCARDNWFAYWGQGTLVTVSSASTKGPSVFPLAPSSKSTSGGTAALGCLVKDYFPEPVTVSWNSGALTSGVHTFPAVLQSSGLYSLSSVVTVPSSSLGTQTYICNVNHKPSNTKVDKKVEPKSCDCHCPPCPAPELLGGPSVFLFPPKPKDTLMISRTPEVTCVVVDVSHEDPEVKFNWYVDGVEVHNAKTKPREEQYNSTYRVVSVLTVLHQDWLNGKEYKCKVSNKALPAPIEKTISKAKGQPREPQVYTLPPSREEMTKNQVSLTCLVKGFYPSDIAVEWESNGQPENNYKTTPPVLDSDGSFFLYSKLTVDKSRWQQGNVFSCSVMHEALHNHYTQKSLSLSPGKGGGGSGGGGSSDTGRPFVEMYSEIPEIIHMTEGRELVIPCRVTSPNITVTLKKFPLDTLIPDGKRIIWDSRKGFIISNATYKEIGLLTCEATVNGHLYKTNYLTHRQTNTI
light: DIQMTQSPSSLSASVGDRVTITCKSSQSLLASGNQNNYLAWYQQKPGKAPKMLIIWASTRVSGVPSRFSGSGSGTDFTLTISSLQPEDFATYYCQQSYSRPYTFGQGTKVEIKRTVAAPSVFIFPPSDEQLKSGTASVVCLLNNFYPREAKVQWKVDNALQSGNSQESVTEQDSKDSTYSLSSTLTLSKADYEKHKVYACEVTHQGLSSPVTKSFNRGEC
notes: also called bispecific antibody MV10AY; double-specific antibody MV10AY
Turning to B5, in assay [1], the “AKT phosphorylation inhibitory ability (phospho-AKT Ser473 ELISA, Caki-1 cells, compared to 5D5 control group)” value amounted to 74% and the “c-Met degradation ability (total c-Met ELISA, MKN45 cells, 5 ug/ml antibody, 24 h)” value stood at 72%. Besides, in assay [3], the Kd amounted to 0.45 nM, the off-rate (koff) came out at 0.0011 s⁻¹ and the kon came out at 2.4e+06 M⁻¹ s⁻¹. Moreover, in assay [2], the Kd is below 0.01 nM, the koff is below 1.4e-05 s⁻¹ and the kon was 680000 M⁻¹ s⁻¹.

B6: MV10AY U3 HC9/IgG2 (bispecific antibody)
heavy: EVQLVESGGGLVQPGGSLRLSCAASGFTFTDYYMSWVRQAPGKGLEWLGFIRNKANGYTTEYSASVKGRFTISRDNSKNTLYLQMNSLRAEDTAVYYCARDNWFAYWGQGTLVTVSSASTKGPSVFPLAPCSRSTSESTAALGCLVKDYFPEPVTVSWNSGALTSGVHTFPAVLQSSGLYSLSSVVTVPSSNFGTQTYTCNVDHKPSNTKVDKTVERKCCVECPPCPAPPVAGPSVFLFPPKPKDTLMISRTPEVTCVVVDVSHEDPEVQFNWYVDGVEVHNAKTKPREEQFNSTFRVVSVLTVVHQDWLNGKEYKCKVSNKGLPAPIEKTISKTKGQPREPQVYTLPPSREEMTKNQVSLTCLVKGFYPSDIAVEWESNGQPENNYKTTPPMLDSDGSFFLYSKLTVDKSRWQQGNVFSCSVMHEALHNHYTQKSLSLSPGKGGGGSGGGGSSDTGRPFVEMYSEIPEIIHMTEGRELVIPCRVTSPNITVTLKKFPLDTLIPDGKRIIWDSRKGFIISNATYKEIGLLTCEATVNGHLYKTNYLTHRQTNTI
light: DIQMTQSPSSLSASVGDRVTITCKSSQSLLASGNQNNYLAWYQQKPGKAPKMLIIWASTRVSGVPSRFSGSGSGTDFTLTISSLQPEDFATYYCQQSYSRPYTFGQGTKVEIKRTVAAPSVFIFPPSDEQLKSGTASVVCLLNNFYPREAKVQWKVDNALQSGNSQESVTEQDSKDSTYSLSSTLTLSKADYEKHKVYACEVTHQGLSSPVTKSFNRGEC
In assay [2], B6 gave a Kd below 0.01 nM, a koff below 6.9e-05 s⁻¹ and a kon of 720000 M⁻¹ s⁻¹.

B7: AbF46, a mouse antibody to c-Met (antibody, V domains shown)
VH: EVKLVESGGGLVQPGGSLRLSCATSGFTFTDYYMSWVRQPPGKALEWLGFIRNKANGYTTEYSASVKGRFTISRDNSQSILYLQMDTLRAEDSATYYCARDNWFAYWGQGTLVTVSA
VL: DILMTQSPSSLTVSAGEKVTMSCKSSQSLLASGNQNNYLAWHQQKPGRSPKMLIIWASTRVSGVPDRFIGSGSGTDFTLTINSVQAEDLAVYYCQQSYSAPLTFGAGTKLELK
notes: also called monoclonal antibody of hybridoma KCLRF-BP-00220
Take B7: in assay [4], the binding result is “binds”.
